Data as given in patent publication US20060154859A1.

Legend:
[1] = target: long form of human leptin receptor (human) (UniProt P48357); experiment: cell-based or functional assay
[2] = target: recombinant chicken leptin binding domain (chLBD) (chicken); experiment: affinity for chLBD (method not given; compared with the SPR value of WT human leptin)
[3] = target: long form of human leptin receptor (human) (UniProt P48357); experiment: radioreceptor assay, homogenate from 1.75x10^6 BAF/3 cells with human leptin receptor per tube
Target sequence in this assay (P48357 22-1165 limits assumed, form in doubt): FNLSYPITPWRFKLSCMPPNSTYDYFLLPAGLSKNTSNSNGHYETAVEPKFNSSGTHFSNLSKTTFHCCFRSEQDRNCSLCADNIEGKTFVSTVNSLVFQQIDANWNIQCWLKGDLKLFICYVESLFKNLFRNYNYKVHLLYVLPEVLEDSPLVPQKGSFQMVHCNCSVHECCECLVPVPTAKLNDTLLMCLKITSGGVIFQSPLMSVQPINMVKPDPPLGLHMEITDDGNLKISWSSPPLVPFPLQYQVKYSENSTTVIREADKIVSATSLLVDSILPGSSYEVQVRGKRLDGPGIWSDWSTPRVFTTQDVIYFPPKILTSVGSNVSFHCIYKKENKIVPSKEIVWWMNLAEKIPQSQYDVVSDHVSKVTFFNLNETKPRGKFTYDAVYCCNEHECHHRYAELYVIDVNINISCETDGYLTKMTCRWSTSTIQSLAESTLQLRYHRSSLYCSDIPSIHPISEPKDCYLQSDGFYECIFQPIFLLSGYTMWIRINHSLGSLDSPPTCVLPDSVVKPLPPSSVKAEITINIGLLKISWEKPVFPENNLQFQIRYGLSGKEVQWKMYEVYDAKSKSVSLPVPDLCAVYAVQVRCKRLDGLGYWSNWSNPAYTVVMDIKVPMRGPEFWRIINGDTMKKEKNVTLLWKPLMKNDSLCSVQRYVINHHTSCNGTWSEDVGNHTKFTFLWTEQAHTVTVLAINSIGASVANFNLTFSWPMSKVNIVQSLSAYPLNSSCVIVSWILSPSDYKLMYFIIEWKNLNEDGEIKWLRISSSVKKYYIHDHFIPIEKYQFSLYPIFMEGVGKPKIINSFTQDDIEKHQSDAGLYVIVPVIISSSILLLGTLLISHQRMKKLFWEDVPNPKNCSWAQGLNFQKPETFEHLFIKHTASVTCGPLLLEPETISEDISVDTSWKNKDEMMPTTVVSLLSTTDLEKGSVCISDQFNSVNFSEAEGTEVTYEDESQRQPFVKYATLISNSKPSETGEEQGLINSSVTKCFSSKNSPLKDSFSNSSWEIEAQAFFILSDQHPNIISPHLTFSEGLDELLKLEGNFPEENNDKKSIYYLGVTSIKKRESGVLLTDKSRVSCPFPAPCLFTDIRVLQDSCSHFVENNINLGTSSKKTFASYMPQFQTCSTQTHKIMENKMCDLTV

[4] = target: recombinant chicken leptin binding domain (chLBD) (chicken); experiment: SPR (Biacore 3000), leptin amine-coupled to CM5 chip, soluble chLBD as analyte, 25 C, 1:1 Langmuir fit, mean of 2 experiments
[5] = target: long form of human leptin receptor (human) (UniProt P48357); experiment: radioreceptor competition assay against iodinated leptin, homogenate of BAF/3 cells with long form of human leptin receptor, average of two experiments
Target sequence in this assay (P48357 22-1165 limits assumed, form in doubt): as above

Row | Substance | IC50 for inhibition in the Baf/3 bioassay [1] [nM] | Kd [2] [nM] | IC50 for inhibition in the Baf/3 bioassay, fold against L39A/D40A/F41A or L39A/D40A/F41A/I42A [1] [fold] | EC50 in Baf/3 bioassay (proliferation of BAF/3 cells transfected with the long form of human leptin receptor, MTT) [1] [nM] | specific binding [3] [%] | Kd [4] [nM] | koff [4] [s⁻¹] | kon [4] [M⁻¹ s⁻¹] | IC50 [5] [nM]
1 | human leptin L39A/D40A/F41A/I42A/S120A/T121A mutant (from UniProt P41159 22-167) (ligand) | 14.3 | 26.9 | – | – | – | – | – | – | –
2 | human leptin S120A/T121A mutant (from UniProt P41159 22-167) (ligand) | 165 | 29.5 | 150 | – | – | – | – | – | –
3 | wild-type (WT) human leptin, recombinant (from UniProt P41159 22-167) (ligand) | – | – | – | 0.022 | 6 to 7 | 28.8 | 0.0043 | 149000 | 5.33
4 | wild-type (WT) ovine leptin, recombinant (from UniProt Q28603 1-146) (ligand) | – | – | – | 0.037 | – | 22.8 | 0.0037 | 162000 | 1.47
